In US20210292393A1:
Residue numbers refer to the chain shown, from its start. “And” between values parts separate entries of the source, which are not always exact repeats. Equal values may be shown once.

B1: antibody 490 (antibody, V domains shown)
VH: QVQLQESGPGLVKPSGTLSLTCAVSGGSISSSNWWSWVRQPPGKGLEWIGELYHSGSTNYNPSLKSRVTISVDKSKNQFSLKLSSVTAADTAVYYCARVGPYYYDSSGYYNYFDYWGPGTLVTVSS
VL: EIVLTQSPATLSLSPGERATLSCRASQSVSSYLAWYQQKPGQAPRLLIYDASNRATGIPARFSGSGSGTDFTLTISSLEPEDFAVYYCQQRSNWPPGITFGQGTRLEIK
B2: antibody 495 (antibody, V domains shown)
VH: QITLKESGPTLVKPTQTLTLTCTFSGFSLSTSGVGVGWIRQPPGKALEWLALIYWDDDKRYSPSLKSRLTITKDTSKNQVVLIMTNMDPVDTATYYCAHRDSSSWFDLDAFDIWGQGTMVIVSS
VL: QSVLTQPPSVSEAPRQRVTISCSGSSSNIGNNAVNWYQQLPGKAPKLLIYYDDLLPSGVSDRFSGSKSGTSASLAISGLQSEDEADYYCAAWDDRLNGPVFGGGTKLTVL
B3: antibody 521 (antibody, V domains shown)
VH: QVQLVESGGGVVQPGRSLRLSCAASGFTFSSYGMHWVRQAPGKGLEWVAVIWYDGSNKYYADSVKGRFTISRDNSKNTLYLQMNSLRAEDTAVYYCAREGNDYGDYGEWELLGYFDYWGQGTLVTVSS
VL: SYELTQPPSVSVSPGQTARITCSGDALPKKYAYWYQQKSGQAPVLVIYEDSKRPSGIPERFSGSSSGTMATLTISGAQVEDEADYYCYSTDSSGNHRRVFGGGTKLTVL
B4: antibody 493 (antibody, V domains shown)
VH: EVQLVESGGGLIQPGRSLRLSCAASGFTVSITYMSWVRQAPGKGLEWVSLIYSGGSSYYADSVKGRFTISRDNSKNTLYLQMNSLRAEDTAVYYCATTMVRGVIISYYYGMDVWGQGTTVTVSS
VL: QSALTQPASVSGSPGQSITISCTGTSSDVGGYNYVSWYQQHPGKAPKLMIYEVSNRPSGVSNRFSGSKSGNTASLTISGLQAEDEADYYCSSYTSSSTLVFGGGTKLTVL
B5: antibody 507 (antibody, V domains shown)
VH: QVQLQESGPGLVKPSGTLSLTCAVSGGSISSSNWWSWVRQPPGKGLEWIGEIYHSGNTNYNPSLKSRVTISVDKSKNQFSLKLSSVTAADTAVYYCARREWLRLFDYWGQGTLVTVSS
VL: B4 VL with G31S, Y34L, N55K, S91C, T94A, S95G, L99Y, G103T, L107V
B6: antibody 524 (antibody, V domains shown)
VH: QVQLVESGGGVVQPGRSLRLSCAASGFTFSSYAMHWVRQAPGKGLEWVAVISYDGSNKYYADSVKGRFTISRDNSKNTLYLQMNSLRAEDTAVYYCAKAGGGSYYRGFDYWGQGTLVTVSS
VL: QSVLTQPPSVSAAPGQKVTISCSGSNSNIGNNYVSWYQQLPGSAPKLLIYDNDKRPSGIPDRFSGSKSGTSATLGITGLQTGDEADYYCGAWDSSLTALVFGGGTKLTVL
B7: antibody 499 (antibody, V domains shown)
VH: EVQLVESGGGLVKPGGSLRLSCAASGFTFSSYSMNWVRQAPGKGLEWVSSISSSSSYIYYADSVKGRFTISRDNAKNSLYLQMNSLRAEDTAVYYCARAPAGIVVGPDYWGQGTLVTVSS
VL: NFMLTQPHSVSESPGKTVTISCTGSSGSIASNYVQWYQQRPGSAPTTVIFEDNQRPSGVPDRFSGSIDSSSNSASLTISGLKTEDEADYYCQSYHSSNPHVVFGGGTKLTVL
B8: antibody 505 (antibody, V domains shown)
VH: EVQLVESGGGLVKPGGSLRLSCAASGFTFSSYSMNWVRQAPGKGLEWVSSISSSSSYIYYADSVKGRITISRDNAKNSLYLQMNSLRAEDTAVYYCAREYPNFRAEWLLSPYGMDVWGQGTTVTVSS
VL: QSALTQPASVSGSPGQSITISCTGTSSDVGSYNLVSWYQQHPGKAPKLMIYEVSKRPSGVSNRFSGSKSGNTASLTISGLQAEDEADYYCCSYAGSSTSVKVFGTGTKVTVL
B9: antibody 436 (antibody, V domains shown)
VH: QVQVVESGGGVVQPGRSLRLSCAASGFTFSSYAMHWVRQAPGKGLEWVAVISYDGNNEYYVDPVKGRFTISRDNSKNTLYLQMNSLRAEDTALYYCATSREAIVVGGILDYWGQGTLVTVSS
VL: DIQMTQSPSSLSASVGDRVTITCQASHDINNFLNWYQQKPGQAPKLLIYDASNLETGVPSRFSGSGSGTDFTFTISSLHPEDVATYYCQQYDGLPRYVTFGQGTKLEIR
B10: antibody 464 (antibody, V domains shown)
VH: QVQLVQSGAEVKKPGASVKVSCKVSGYTLTELSMHWVRQAPGKGLEWMGGFDPEDGETIYAQKFQGRVTMTEDTSTDTAYMELSSLRSEDTAVYYCATARAFGVANWFDPWGQGTLVTVSS
VL: QSVLTQPPSASGTPGQRVTISCSGSSSNIGSNYVYWYQQLPGTAPKLLIYRNNQRPSGVPDRFSGSKSGTSASLAISGLRSEDEADYYCAAWDDSLSGLYVFGTGTKVTVL
B11: antibody 304 (antibody, V domains shown)
VH: EVQLLESGGGLVQPGGSLRLSCAASGFTFSTYAMSWVRQAPGKGLEWVSAISGSGGSTYYADSVKGRFTISRDNSKNTLYLQMNSLRAEDTAVYYCASGYSPDYWGQGTLVTVSS
VL: AIQMTQSPSSLSASVGDRVTITCRASQGIRNDLGWYQQKPGKAPKLLIYAASSLQSGVPSRFSGSGSGTDFTLTISSLQPEDFATYYCLQDYNYPRTFGQGTKVEIK
B12: antibody 374 (antibody, V domains shown)
VH: QVQLQESGPGLVKPSGTLSLTCAVSGGSISSSKWWSWVRQPPGKGLEWIGEIYHSGSTNYNPSLKSRVTISVDKSKNQFSLKLSSVTAADTAVYYCARRELGEGTFTYWGQGTLVTVSS
VL: not shown
B13: antibody 383 (antibody, V domains shown)
VH: EVQLVESGGGLVQPGGSLRLSCAASGFTFSSYDMHWVRQATGKGLEWVSTIGTAGDTYYPGSVKGRFTISRENAKNSLYLQMNSLRAGDTAVYYCARVAYSSSFVYWYFDLWGRGTLVTVSS
VL: DIQMTQSPSSLSASIGDRVTITCRASQSISSYLNWYQQKPGKAPNLLIYAASSLQSGVPSRFSGSGSGTDFTLTISSLQPEDFATYYCQQSYTTPLYTFGQGTKLEIK
B14: antibody 382 (antibody, V domains shown)
VH: QVQLVESGGGVVQPGRSLRLSCAASGFTFSNYGMHWVRQAPGKGLEWMTVISFDGRNKYYADSVKGRFTISRDNSKNTLFLQMNSLTTEDTALYFCASGRRPRYSSGWSFDYWGQGTLVTVSS
VL: DIQMTQSPSSLSASVGDRVTITCQASQDIGNYLNWYQQKLGKAPNLLIYDASNLETGVPSRFSGSGSGTDFTFTINSLQPEDTATYYCQQYDDPSITFGQGTRLEIK
B15: antibody 259 (antibody, V domains shown)
VH: EVQLVQSGAEVKKPGATVKISCKVSGYTFTDYYMHWVQQAPGKGLEWMGLVDPEDGETIYAEKFQGRVTITADTSTDTAYMELSSLRSEDTAVYYCATDLLSWKLYCSGGSCPQMDVWGQGTTVTVSS
VL: B11 VL with A1D, L46R, D70E, D91H, Y92N, N93S, R96Q, V104L
B16: antibody 270 (antibody, V domains shown)
VH: QVQLVQSGAEVKRPGTSVKVSCKTSGYTFTDHFIHWVRQAPGRRLEWMGWINPNSGGTNYAQNFQGRVTMTRDTSITTAYMDLTRLTSDDTAIYYCAREAAYGSGNLNWFDPWGQGTRVTVSS
VL: NFMLTQPHSVSESPGKTVTISCTGSSGSIAANYVHWYQQRPGSAPRTVIYEDNQRPSGVPDRFSGSIDSSSNSASLTISGLKTEDEADYYCQSYDGDSWVFGGGTKLTVL
B17: antibody 267 (antibody, V domains shown)
VH: EVHLVQSGAEMKKPGATVKISCKVSGNTFIDHYIQWVQQAPGKGFEWMGLVDPEDGETIYAEKFQGRVTITADTSRDTAYMELSSLKSEDTAVYYCGTHGDYLDYWGQGTLVTVSS
VL: FYELTQPSSVSVSPGQTALITCSGDVVAKKYARWFQQKAGQAPVLVIYKDTERPSGIPERISGSSSGTTVTLTISGAQVEDEADYYCYSATDNNLVFGGGTKVTVL
B18: antibody 551 (antibody, V domains shown)
VH: EVQLVESGGGLVQPGGSLRLSCAASGFTFSSYWMSWVRQAPGKGLEWVANINQDGSDKYYVDSVKGRFTISRDNAKNSLYLQMNSLRAEDTAVYYCARAPGWAAAPTFDYWGQGTLVTVSS
VL: QSALTQPRSVSGSPGQSVTISCTGTSSDVGGYNYVSWYQQHPGKAPKFMIYDVSKRPSGVPDRFSGSKSGNTASLTISGLQAEDEADYYCCSYAGSYTLVVFGGGTKLTVL

The binders below were run against SARS-CoV-2 full length spike protein, wild type, expressed on the surface of CHO cells (SARS-CoV-2), P0DTC2 (assay: not given). Conditions: remark: other sources report otherwise.

Binder | median fluorescence fold over isotype control (fold over isotype)
B1 | 1.07 and 1.28 and 1.08
B2 | 1.23 and 0.83
B3 | 2.42 and 0.86
B4 | 1.26 and 1.1
B5 | 1.51
B6 | 0.58 and 0.55
B7 | 1.35 and 0.9
B8 | 1.55

What follows are binders tested against SARS-CoV-2 spike protein (SARS-CoV-2), P0DTC2 (assay: HT-SPR, Carterra LSA; mAb coupled to chip, antigen injected; 1:1 fit). Conditions: remark: other sources report otherwise.

Binder | Kd | koff | kon
B2 | 0.0718 nM | 1.55e-05 s⁻¹ | 216000 M⁻¹ s⁻¹
B3 | 9.9 nM | 0.000299 s⁻¹ | 30200 M⁻¹ s⁻¹
B4 | < 0.133 nM | < 1e-05 s⁻¹ | 
B6 | 34.6 nM | 0.00272 s⁻¹ | 78600 M⁻¹ s⁻¹
B7 | 0.297 nM | 1.88e-05 s⁻¹ | 63300 M⁻¹ s⁻¹

Each binder was assayed against SARS-CoV-2 spike protein (SARS-CoV-2), P0DTC2 (assay: not given). Conditions: remark: other sources report otherwise.

Binder | Kd | koff | kon
B9 | 19.4 nM | 0.000352 s⁻¹ | 18200 M⁻¹ s⁻¹
B10 | 4.58 nM | 0.000512 s⁻¹ | 112000 M⁻¹ s⁻¹

What follows are binders tested against SARS-CoV-2 spike (S) protein (SARS-CoV-2), P0DTC2 (assay: not given). Conditions: remark: other sources report otherwise.

Binder | Kd | koff | kon
B11 | 3.14 nM | 0.000274 s⁻¹ | 87300 M⁻¹ s⁻¹
B12 | 1.58 nM | 7.86e-05 s⁻¹ | 49600 M⁻¹ s⁻¹
B13 | 0.772 nM | 7.09e-05 s⁻¹ | 91800 M⁻¹ s⁻¹
B14 | 11.2 nM | 0.00134 s⁻¹ | 120000 M⁻¹ s⁻¹

The binders below were run against SARS-CoV-2 full length spike protein (wild type) (SARS-CoV-2), P0DTC2 (assay: not given). Conditions: remark: other sources report otherwise.

Binder | binding signal, bead assay (fold over isotype)
B11 | 1.22 and 1.17 and 1.09
B15 | 275
B16 | 305
B17 | 312

Each binder was assayed against SARS-CoV-2 full length spike protein (wild-type), conjugated to optically encoded beads (SARS-CoV-2), P0DTC2 (assay: not given). Conditions: remark: other sources report otherwise.

Binder | median fluorescence fold over isotype (fold over isotype)
B18 | 649
B5 | 571
B8 | 658
